The target of assay [1] is PHF2(1–70), PHD domain of human PHF2 (residues 1–70) (human) (UniProt O75151). Briefly: ITC.
The target of assay [2] is PHF2(1–451), N-terminal half of human PHF2 with the PHD and Jumonji domains (residues 1–451) (human) (UniProt O75151). As to the kind of experiment: ITC. A general note: ITC needs no label: the signal is the heat of the interaction.
PHF2(1–451), N-terminal half of human PHF2 with the PHD and Jumonji domains (residues 1–451) (human), sequence (O75151 1-451): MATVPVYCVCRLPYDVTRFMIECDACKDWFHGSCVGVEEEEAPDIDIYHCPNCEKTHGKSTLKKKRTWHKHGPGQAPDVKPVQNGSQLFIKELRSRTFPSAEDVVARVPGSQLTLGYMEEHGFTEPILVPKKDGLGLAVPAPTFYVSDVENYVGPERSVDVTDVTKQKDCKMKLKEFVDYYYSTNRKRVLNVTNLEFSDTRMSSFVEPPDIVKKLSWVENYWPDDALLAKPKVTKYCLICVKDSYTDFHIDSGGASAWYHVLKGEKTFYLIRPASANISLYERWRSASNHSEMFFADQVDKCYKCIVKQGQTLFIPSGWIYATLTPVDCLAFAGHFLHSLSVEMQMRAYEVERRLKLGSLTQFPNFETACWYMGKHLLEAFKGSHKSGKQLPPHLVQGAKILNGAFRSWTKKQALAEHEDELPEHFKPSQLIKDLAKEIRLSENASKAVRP

PHF2(1–70), PHD domain of human PHF2 (residues 1–70) (human), sequence (O75151 1-70): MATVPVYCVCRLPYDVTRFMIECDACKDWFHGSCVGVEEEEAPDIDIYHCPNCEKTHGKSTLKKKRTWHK

Consider “VRK1(1-12)K4me3 peptide (12-mer of the N-terminus of vaccinia-related kinase 1, trimethylated at lysine 4)”, for which the values for the Kd in assay [1] and in assay [2] were 900 nM and 42 nM, respectively.

These data come from publication PMC9898751.
